Data published in patent US20090233993A1, “COMPOSITIONS AND METHODS FOR INHIBITING GSK3 ACTIVITY AND USES THEREOF” (Burnham Institute for Medical Research, priority 2008, published 2009).
Entries after “also recorded” stand apart in the source; their conditions may differ.

Columns and labels:
Aβ generation = Aβ generation / APP processing in N2aSwe cells overexpressing FG01 (IP-Western blot); assay type: cell-based, mouse
Method: To investigate FG01's effects on Aβ generation, the His6-tagged recombinant FG01 was overexpressed in N2aSwe cells. The levels of βCTF, APP, sAPPα and secreted and intracellular Aβ were then quantified in the transfected cells and compared to those parental cells.
The His6-tagged FG01 was overexpressed in N2aSwe cells. The secreted and intracellular Aβ were immunoprecipitated by 4G8. The precipitated peptides and sAPPα, βCTF, full length APP and FG01 were analyzed by Western blots. α-tubulin was used as loading control. The levels of the proteins were quantified by densitometry and normalized and compared to those in vector transfected control.
To corroborate this, FG01 was over expressed in N2aSwe cells.

GSK-3α/β [1] = experiment: phospho-GSK-3α/β Western blot in human HeLaSwe and HEK293 cells; assay type: cell-based
Text: Expression of β-catenin, inactivated phospho-GSK-3β, total GSK-3, APP, β-CTF and FG01 in transfected human HEK293 cells were shown by Western blots.
(§1) Although the possibility that FG01 may modulate substrate specificity or accessibility to γ-secretase can not be excluded, it is equally possible that FG01 regulates other proteins/pathways functioning in APP processing and Aβ generation. […] Thus, the activities of GSK-3α/β were studied in the presence or absence of FG01 overexpression by examining levels of phospho-GSK-3α (Ser 21) and phospho-GSK-3β (Ser 9) (which represent inactivated forms of GSK-3) and by in vitro kinase assays.

GSK-3α/β [2] = experiment: phospho-GSK-3α/β Western blot in rat PC12 cells; assay type: cell-based; details: FG01 overexpression
Text: as §1

cAMP levels [3] = experiment: cAMP assay in mouse N2a cells; assay type: cell-based; details: FG01 overexpression
Text: After 48-72 hrs, cells were lysed and cell lysates were subjected to immunoprecipitation with mouse IgG, rabbit IgG, myc antibody and adenylyl cyclase (AC) antibody (Santa Cruz Biotechnology, catalog number sc-1701), and then immunoblotted with antibodies against adenylyl cyclase (AC) and myc, respectively.
(§2) Commercial kits were used to assay in vitro activities of GSK-3β (Sigma) and PKA (Upstate). For GSK-3α activity, a commercial GSK-3β activity assay kit was used but the procedure to immunoprecititate GSK-3β was replaced with immunoprecipitation of GSK-3α using an anti-GSK-3α antibody (Cell Signaling). cAMP levels were assayed using a commercial kit (Biovision).

cAMP levels [4] = experiment: cAMP assay in rat PC12 cells; assay type: cell-based; details: FG01 overexpression
Method: as §2

β-catenin = β-catenin level in mouse N2a cells (Western blot); assay type: cell-based; details: FG01 overexpression
Text: The levels of total GSK-3 were used as normalization factors.

APP = APP trafficking to cell surface (biotinylation) in N2a/swe cells; assay type: cell-based, mouse; details: FG01-transfected N2a/swe cells
Text: After treated with biotin or DMSO, membrane protein and total cell lysates were subjected to Western blots for APP.

PKA = PKA inhibitor H89 treatment of FG01-transfected N2aSwe cells; assay type: cell-based, mouse; details: FG01-transfected cells treated with H89
Method: After 48 hr incubation, cell media were changed to Opti-MEM (Invitrogen) containing DMSO or a PKA activity inhibitor H89 (2 μM) and cells were incubated for additional 4 hrs. The cell media were used for Aβ immunoprecipitation-Western blotting and cell lysates were subjected to Western blotting for p-CREB (substrate for PKA) and p-GSK3β. As shown, inhibiting PKA activity with H89 prevented serine phosphorylation of CREB and GSK3β by FG01.
N2aSwe cells were transfected with control vector or FG01 and then equally split. Four hours before collection, cells were treated with the GSK-3 inhibitor lithium chloride (5 mM) or sodium chloride (5 mM, as control). Alternatively, cells were treated with a PKA inhibitor H89 at 10 μM or with DMSO for control.

3×Tg AD mice = experiment: FG01 transgenic mice crossed with triple transgenic (3×Tg) AD mice, brain analysis; assay type: in vivo, mouse
Text: Brain-specific FG01 transgenic mice were generated using a FG01 expression cassette. FG01 has an N-terminal Myc tag and is driven by the human Thy-1 promoter for neuron-specific expression. A SV40 polyA fragment is linked at the 3′ end for enhancing expression. Genotyping P5 primer was complementary to hThy1 sequence. Genotyping P3 primer was complementary to SV40/Poly A sequence. Reverse transcription primer RT-P5 was complementary to sequence on the 5′ side of the FG01 sequence. Hemizygous FG01 transgenic mice were crossed with homozygous triple transgenic (3×Tg) AD mice harboring mutations in human APP and tau genes on a presenilin 1 (PS1) mutant background (Oddo et al., 2003). Procedures involving animals and their care conformed to institutional guidelines (Animal Resources Department at Burnham Institute for Medical Research).
FG01/3×Tg mice and littermate controls on a 3×Tg background were sacrificed at 11 months of age. Half of the brain was used for immunoblot analysis and the other half was paraffin-embedded for immunohistochemistry. Sagittal brain sections (4 μm) were deparaffinized, hydrated, and then immunostained with anti-Aβ antibody (6E10), anti-phosphorylated tau antibody (PHF-1), or anti-synapsin antibody. After additional incubation with biotinylated secondary antibody, samples were incubated in ABC Elite (HRP) reagent (Vector Laboratories). Reactions were visualized by developing in DAB substrates (Vector Laboratories). All samples were visualized under a light microscope.
FG01 transgenic mice were crossed with triple transgenic (3×Tg) AD mice harboring mutations in human APP, tau and presenilin 1 (PS1) genes (Oddo et al., 2003).

[5] = FG01 overexpression in N2aSwe cells
[6] = FG01/3×Tg vs 3×Tg littermates, 11 months

B1: FG01: 141 amino acid transmembrane protein encoded by mouse retrogene fg01 (SEQ ID NO:2); expressed from transfected vector or transgene (protein)
chain: MQSQQRNIGYFNHLKADSRNITYSMTFSTKSSNQNFIIFLNEVQAAIIGHERCDLLPVLNELHPDALPDGRIWLFGLNPYFFQHNSLCMRGTPKRIGLQGCAQVGFLVLFVMPLLIPSVTAELPGSSETTTLAHLAGATGP
modifications: Myc and His6 tags; homo sapien
notes: expressed from transfected vector or transgene
Aβ generation; FG01-transfected N2aSwe cells, 5 mM LiCl 4 hrs
  Aβ production in the presence of lithium: could not further reduce
Aβ generation; [5]
  levels of extracellular and intracellular Aβ: dramatically reduced
  levels of total APP: not affected
  sAPPα level: stimulated; also recorded: greatly increased
  βCTF level: greatly accumulated; also recorded: greatly increased
Aβ generation; His6-tagged FG01 overexpressed in N2aSwe cells vs control, Aβ40 and 42 equally reduced
  levels of secreted and intracellular Aβ, reduction: more than 50%
Aβ generation; N2a/swe cells pretreated with 5 mM LiCl for 24 hrs before FG01 transfection
  Aβ levels in LiCl-pretreated cells: did not further decrease
GSK-3α/β [1]; FG01 expression, human HEK293 cells, Western blot
  GSK-3 activities (inactivated phospho-GSK-3β): decreases
GSK-3α/β [1]; FG01 overexpression, human HeLaSwe and HEK293 cells
  phospho-GSK-3α (Ser21) and phospho-GSK-3β (Ser9) levels: more highly phosphorylated
GSK-3α/β [2]
  phospho-GSK-3α (Ser21) and phospho-GSK-3β (Ser9) levels: more highly phosphorylated
cAMP levels [3]
  increase of cAMP levels: 38%
cAMP levels [4]
  increase of cAMP levels: 75%
β-catenin
  level of β-catenin: increases
APP
  APP trafficking to cell surface: stimulates
PKA
  inhibition of Aβ generation when PKA suppressed by H89: failed to inhibit
  inhibition of GSK-3 activity when PKA suppressed by H89: failed to inhibit
3×Tg AD mice; 3×Tg mouse brains with FG01 overexpression
  levels of the synaptic marker PSD-95: markedly increased
3×Tg AD mice; [6]
  Aβ generation in brain: reduced
  GSK-3 activity in brain: reduced
  PKA activity in brain: dramatically increased
  tau phosphorylation in brain: reduced
3×Tg AD mice; hippocampus and cortex, immunohistochemistry 6E10
  number of Aβ-immunostaining-positive neurons: significantly decreased
3×Tg AD mice; hippocampus and cortex, immunohistochemistry PHF-1
  number of phosphorylated tau-immunostaining-positive neurons: significantly decreased
3×Tg AD mice; hippocampus, vs 3×Tg mice without FG01
  synapsin immunostaining: much higher immunoreactivity
